Tested on: Myc-tagged MIF1/MSP58 protein (plasmid pCM562), expressed in CHO stable clone #34
Sequence (chain, as listed by the source): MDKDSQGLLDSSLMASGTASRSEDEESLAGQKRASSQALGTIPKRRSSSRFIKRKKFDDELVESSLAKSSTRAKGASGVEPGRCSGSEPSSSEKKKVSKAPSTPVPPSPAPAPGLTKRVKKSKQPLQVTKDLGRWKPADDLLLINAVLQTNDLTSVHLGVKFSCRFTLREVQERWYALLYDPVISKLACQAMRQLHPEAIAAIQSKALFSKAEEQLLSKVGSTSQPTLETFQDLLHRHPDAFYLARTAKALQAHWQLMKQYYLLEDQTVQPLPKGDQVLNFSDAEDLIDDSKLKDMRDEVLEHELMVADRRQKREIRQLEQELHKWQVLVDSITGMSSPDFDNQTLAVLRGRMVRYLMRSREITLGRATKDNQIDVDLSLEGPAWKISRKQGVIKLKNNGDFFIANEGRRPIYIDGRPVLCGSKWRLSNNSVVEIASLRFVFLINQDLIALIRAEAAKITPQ

## MEKK1 of CHO cells (cellular, activated by sorbitol)
  JNK activation (in vitro GST-Jun(1-223) phosphorylation) after 200 mM sorbitol, CHOMIF1 #34 against CHOpCDNA3: Cells expressing MIF1 showed an inhibition of JNK activation (revelated by weak GST-JUNphosphorylation) in response to sorbitol incubation

Reference: US20050250143
